Assay results as given in US10801046B2, “Methods and materials for biosynthesizing multifunctional, multivariate molecules via carbon chain modification” (INVISTA NORTH AMERICA S.A.R.L., priority 2016, dated 2020).

Columns and labels:
[1] = Carboxylate reductase activity, 7-hydroxyheptanoate to 7-hydroxyheptanal, NADPH consumption at 340 nm; assay type: biochemical; settings: enhanced by gene product of sfp, 20 min, against empty vector control, FIG. 44
Method: A sequence encoding a His-tag was added to the genes from Mycobacterium marinum, Mycobacterium smegmatis, Segniliparus rugosus, Mycobacterium smegmatis, Mycobacterium massiliense, and Segniliparus rotundus that encode the carboxylate reductases of SEQ ID NOs: 25 (GenBank Accession No. ACC40567.1), 27 (GenBank Accession No. ABK75684.1), 29 (GenBank Accession No. ABK71854.1), 31 (GenBank Accession No. EFV11917.1), 37 (GenBank Accession No. EIV11143.1), and 38 (GenBank Accession No. ADG98140.1) such that N-terminal HIS tagged carboxylate reductases could be produced. Each of the modified genes was cloned into a pET Duet expression vector alongside a sfp gene encoding a His-tagged phosphopantetheine transferase from Bacillus subtilis, both under control of the T7 promoter.
Each expression vector was transformed into a BL21[DE3] E. coli host and the resulting recombinant E. coli strains were cultivated at 37° C. in a 250 mL shake flask culture containing 50 mL LB media and antibiotic selection pressure, with shaking at 230 rpm. Each culture was induced overnight at 37° C. using an auto-induction media.
The pellet from each induced shake flask culture was harvested via centrifugation. Each pellet was resuspended and lysed via sonication. The cell debris was separated from the supernatant via centrifugation. The carboxylate reductases and phosphopantetheine transferase were purified from the supernatant using Ni-affinity chromatography, diluted 10-fold into 50 mM HEPES buffer (pH=7.5) and concentrated via ultrafiltration.
Enzyme activity (i.e., 7-hydroxyheptanoate to 7-hydroxyheptanal) assays were performed in triplicate in a buffer composed of a final concentration of 50 mM HEPES buffer (pH=7.5), 2 mM […], 10 mM MgCl2, 1 mM ATP, and 1 mM NADPH. Each enzyme activity assay reaction was initiated by adding purified carboxylate reductase and phosphopantetheine transferase or the empty vector control to the assay buffer containing the 7-hydroxyheptanoate and then incubated at room temperature for 20 min. The consumption of NADPH was monitored by absorbance at 340 nm.

[2] = Carboxylate reductase activity, N7-acetyl-7-aminoheptanoate to N7-acetyl-7-aminoheptanal, NADPH consumption at 340 nm; assay type: biochemical; settings: enhanced by gene product of sfp, 2 mM substrate, 20 min, against empty vector control, FIG. 45
Method: The activity of each of the N-terminal His-tagged carboxylate reductases of SEQ ID NOs: 29 (GenBank Accession No. ABK71854.1), 37 (Genbank Accession No. EIV11143.1), and 38 (GenBank Accession No. ADG98140.1) (see Examples 4) for converting N7-acetyl-7-aminoheptanoate to N7-acetyl-7-aminoheptanal was assayed in triplicate in a buffer composed of a final concentration of 50 mM HEPES buffer (pH=7.5), 2 mM N7-acetyl-7-aminoheptanoate, 10 mM MgCl2, 1 mM ATP, and 1 mM NADPH. The assays were initiated by adding purified carboxylate reductase and phosphopantetheine transferase or the empty vector control to the assay buffer containing the N7-acetyl-7-aminoheptanoate then incubated at room temperature for 20 min. The consumption of NADPH was monitored by absorbance at 340 nm.

Molecule | acceptance of 7-hydroxyheptanoate as substrate, forming 7-hydroxyheptanal [1] | acceptance of N7-acetyl-7-aminoheptanoate as substrate, forming N7-acetyl-7-aminoheptanal [2]
SEQ ID NO: 29: Mycobacterium smegmatis carboxylate reductase (protein, Mycobacterium smegmatis (strain ATCC 700084 / mc(2)155), Mycobacterium smegmatis carboxylate reductase) MTSDVHDATDGVTETALDDEQSTRRIAELYATDPEFAAAAPLPAVVDAAHKPGLRLAEILQTLFTGYGDRPALGYRARELATDEGGRTVTRLLPRFDTLTYAQVWSRVQAVAAALRHNFAQPIYPGDAVATIGFASPDYLTLDLVCAYLGLVSVPLQHNAPVSRLAPILAEVEPRILTVSAEYLDLAVESVRDVNSVSQLVVFDHHPEVDDHRDALARAREQLAGKGIAVTTLDAIADEGAGLPAEPIYTADHDQRLAMILYTSGSTGAPKGAMYTEAMVARLWTMSFITGDPTPVINVNFMPLNHLGGRIPISTAVQNGGTSYFVPESDMSTLFEDLALVRPTELGLVPRVADMLYQHHLATVDRLVTQGADELTAEKQAGAELREQVLGGRVITGFVSTAPLAAEMRAFLDITLGAHIVDGYGLTETGAVTRDGVIVRPPVIDYKLIDVPELGYFSTDKPYPRGELLVRSQTLTPGYYKRPEVTASVFDRDGYYHTGDVMAETAPDHLVYVDRRNNVLKLAQGEFVAVANLEAVFSGAALVRQIFVYGNSERSFLLAVVVPTPEALEQYDPAALKAALADSLQRTARDAELQSYEVPADFIVETEPFSAANGLLSGVGKLLRPNLKDRYGQRLEQMYADIAATQANQLRELRRAAATQPVIDTLTQAAATILGTGSEVASDAHFTDLGGDSLSALTLSNLLSDFFGFEVPVGTIVNPATNLAQLAQHIEAQRTAGDRRPSFTTVHGADATEIRASELTLDKFIDAETLRAAPGLPKVTTEPRTVLLSGANGWLGRFLTLQWLERLAPVGGTLITIVRGRDDAAARARLTQAYDTDPELSRRFAELADRHLRVVAGDIGDPNLGLTPEIWHRLAAEVDLVVHPAALVNHVLPYRQLFGPNVVGTAEVIKLALTERIKPVTYLSTVSVAMGIPDFEEDGDIRTVSPVRPLDGGYANGYGNSKWAGEVLLREAHDLCGLPVATFRSDMILAHPRYRGQVNVPDMFTRLLLSLLITGVAPRSFYIGDGERPRAHYPGLTVDFVAEAVTTLGAQQREGYVSYDVMNPHDDGISLDVFVDWLIRAGHPIDRVDDYDDWVRRFETALTALPEKRRAQTVLPLLHAFRAPQAPLRGAPEPTEVFHAAVRTAKVGPGDIPHLDEALIDKYIRDLREFGLI | accepted 7-hydroxyheptanoate as substrate | accepted N7-acetyl-7-aminoheptanoate as substrate
SEQ ID NO: 37: Mycobacterium massiliense carboxylate reductase (protein, Mycobacterium abscessus subsp. bolletii 2B-0307, Mycobacterium massiliense carboxylate reductase) MTNETNPQQEQLSRRIESLRESDPQFRAAQPDPAVAEQVLRPGLHLSEAIAALMTGYAERPALGERARELVIDQDGRTTLRLLPRFDTTTYGELWSRTTSVAAAWHHDATHPVKAGDLVATLGFTSIDYTVLDLAIMILGGVAVPLQTSAPASQWTTILAEAEPNTLAVSIELIGAAMESVRATPSIKQVVVFDYTPEVDDQREAFEAASTQLAGTGIALETLDAVIARGAALPAAPLYAPSAGDDPLALLIYTSGSTGAPKGAMHSENIVRRWWIREDVMAGTENLPMIGLNFMPMSHIMGRGTLTSTLSTGGTGYFAASSDMSTLFEDMELIRPTALALVPRVCDMVFQRFQTEVDRRLASGDTASAEAVAAEVKADIRDNLFGGRVSAVMVGSAPLSEELGEFIESCFELNLTDGYGSTEAGMVFRDGIVQRPPVIDYKLVDVPELGYFSTDKPHPRGELLLKTDGMFLGYYKRPEVTASVFDADGFYMTGDIVAELAHDNIEIIDRRNNVLKLSQGEFVAVATLEAEYANSPVVHQIYVYGSSERSYLLAVVVPTPEAVAAAKGDAAALKTTIADSLQDIAKEIQLQSYEVPRDFIIEPQPFTQGNGLLTGIAKLARPNLKAHYGPRLEQMYAEIAEQQAAELRALHGVDPDKPALETVLKAAQALLGVSSAELAADAHFTDLGGDSLSALSFSDLLRDIFAVEVPVGVIVSAANDLGGVAKFVDEQRHSGGTRPTAETVHGAGHTEIRAADLTLDKFIDEATLHAAPSLPKAAGIPHTVLLTGSNGYLGHYLALEWLERLDKTDGKLIVIVRGKNAEAAYGRLEEAFDTGDTELLAHFRSLADKHLEVLAGDIGDPNLGLDADTWQRLADTVDVIVHPAALVNHVLPYNQLFGPNVVGTAEIIKLAITTKIKPVTYLSTVAVAAYVDPTTFDEESDIRLISAVRPIDDGYANGYGNAKWAGEVLLREAHDLCGLPVAVFRSDMILAHSRYTGQLNVPDQFTRLILSLIATGIAPGSFYQAQTTGERPLAHYDGLPGDFTAEAITTLGTQVPEGSEGFVTYDCVNPHADGISLDNFVDWLIEAGYPIARIDNYTEWFTRFDTAIRGLSEKQKQHSLLPLLHAFEQPSAAENHGVVPAKRFQHAVQAAGIGPVGQDGTTDIPHLSRRLIVKYAKDLEQLGLL | accepted 7-hydroxyheptanoate as substrate | accepted N7-acetyl-7-aminoheptanoate as substrate
